Assay results from a protein production outcome set (Wang et al. 2014).

Assay: label from the status in PepcDB records

DTMCLAIPGQVIEIREENGLKMGTVDISGALTKACLEYVPEIAIGQYTIVHAGFALKIIDEKEAAESLKLWDELIKSG
protein production: not failed

MASMTGGQQMGRGSEEPNPNDGYDYMQHGFDWPGLQEGGTTKYPACSGSNQSPIDINTNQLMEPSSRSGTSAVSLNGLNVDGAQADGITLTNAKVDLEQGMKVTFDQPAANLPTIEIGGTTKSFVPIQFHFHHFLSEHTINGIHYPLELHIVMQEQDPADVATAQLAVIGIMYKYSENGDAFLNSLQTQIEGKIGDGTASYGDTGVSIDNINVKTQLLPSSLKYAGYDGSLTTPGCDERVKWHVFTTPREVTREQMKLFVDVTMGAHAGADVVNNRMIQDLGDREVYKYNY
protein production: not failed

MRTATSTSPATGTPAPVPSRTPDVTVTVIVYNDAGRLPRAVASALRQSHANIEVVISDDHSTDATEEVARELAAHDPRVVYLRLPENSGGCSAPRNRALEIARAPYLMFLDSDDELPERAVEVLLAAHRERDLDFAMGAVHRIREDGGRRTTWMPHLVAERRTLDGIEADPRLLFEHLSTSKMYARAFLDRHGLRFPEGIHYEDQLFSAQAYCLAKTFTVVPEPVYRWYIAPYADADSASISNQRHKLTNVRDRVHVQRLIDAFLAESGHEALREDKDFKFLKHDFRMYAGDLPYRDDTWLASFADLMNPYLDTLAEGAYARLPRAERVVLRLLRDRRLSDVRTAARGLGHDVAPRRVTPDEQSGRVYWGEEVPASPESRRELDLTDLDLDTRPFFTALLRHEITEITRGPGASVDLTVRTYDPALRLPVGPQRAVLHLSPGPRRLTVPFRLSPVRPGLFEGRVRLDLAAARLPLHGFAGTRHPVLRLRHRGRTHTGILLAPLAFPPLTARVPYRTGLTPHRVTLRPEGHNPGRLQITWQPVGTTAKILGPAARRLSTPRTRRAARLLSNILRLEHHHHHH
protein production: not failed

MTVKTEAAKGTLTYSRMRGMVAILIAFMKQRRMGLNDFIQKIANNSYACKHPEVQSILKISQPQEPELMNANPSPPPSPSQQINLGPSSNPHAKPSDFHFLKVIGKGSFGKVLLARHKAEEVFYAVKVLQKKAILKKKEEKHIMSERNVLLKNVKHPFLVGLHFSFQTADKLYFVLDYINGGELFYHLQRERCFLEPRARFYAAEIASALGYLHSLNIVYRDLKPENILLDSQGHIVLTDFGLCKENIEHNSTTSTFCGTPEYLAPEVLHKQPYDRTVDWWCLGAVLYEMLYGLPPFYSRNTAEMYDNILNKPLQLKPNITNSARHLLEGLLQKDRTKRLGAKDDFMEIKSHVFFSLINWDDLINKKITPPFNPNVSGPNDLRHFDPEFTEEPVPNSIGKSPDSVLVTASVKEAAEAFLGFSYAPPTDSFL
protein production: failed

MCYTGDMEDVKHPRLTRRGRIYWFRAKVPADLRSHYAPKTEIIYSLKTSDPREALVRVRIASVKADQEFEVARRIPKEEVRTSLSDDEAERLVAIYYQVRLEEDEEIRIGGKQEADLYLGVKAQLEALGIGHANYTNEEAVAEYGLSQREYQKNQETLEFMEPLYREALSTGNTEIIHDELDDILEANSIKLDRTSSQYRKLAFSILKATVKVLDVEKRRNSGEPIDTPPEPPPLFKPAVTAVPANSLRLSEVFERWKVERKPAKRSLMEWDTAIRRFTALYGDKPVESITKAEVVEFKDSLLQQGKAAATVLKQVGAIKSTLQYAVDNGKLSVNPATGVKVAGKRASEVRRLPYDAEDLKAIFSSPVFTCGDRPLAGSGEASFWLPLLALFTGARLNEIGQILVSDVRELDGIHYLDLNTEGEGKSLKNEGSRRKVPLHPEIIRLGFLDYVRKQGESLGSDSRVFDKLEPNSNGVLTANFSKWWGRYARENGIAKGQKVFHSFRHSFKDACRESSLPQDIHDALTGHSPNNVGGRYGQGFTVRRLGEEMAKLSYPGLDLSGLMKP
protein production: failed

SLGEMKRAAIIIDDFGGDVKGVDDFLTGEIPVTVAVMPFLEHSTKQAEIAQAAGLEVIVHMPLEPKKGKISWLGPSGITSNLSVGEVKSRVRKAFDDIPYAVGLNNHMGSKIVENEKIMRAILEVVKEKNAFIIDSGTSPHSLIPQLAEELEVPYATRSIFLDNTHSSRKEVIKNMRKLAKKAKQGSEPIGIGHVGVRGDETYAGIRSMLDEFQAESIQLVPVSQLLPSPIEEDHNKFWQQPFQAKE
protein production: not failed

YDAILLIDYRQRRIIDCNQTAQKLLGYSKEELRLLPPYRLLRAMSARSIKPIFQDILAKRREIHDITLLSQSGEQLLGQLSFNTLQEED
protein production: failed

MGEEAALDSFVKLEETLGEDEPCTARIIAPSSRAVLQSPTPPLPLKPHFLTNFPKYWSRPYLQAVPLHCQWERIPELVKQLSAKLIANDDMAELLLGESKLEQHLKEKPLRQGASPRGPRPQLTEVRKHLTAALDRGNLKSEFLQESNLVMAKLNYVEGDYKEALNIYARVGLDDLPLMAVPPYRLRMIAEAYATKGLCLEKLPVSSSTSNLHVDREQDVITCYEKAGDIALLYLQEIERVILTNIQNRSPKPGPAPHDQELGFFLETGLQRAHVLYFKNGNLTRGVGRFRELLRAVETRTTQNLRMTIARQLAEILLRGMCEQSYWNPLEEPPCQSPLDDPLRKGANTKTYTLPRRARVYSGENIFCPQENTEEALLLLLISESMANRDAVLSRIPEHKSDRLISLQSASVVYDLLTIALGRRGQYEMLSECLERAMKFAFEEFHLWYQFALSLMAAGKSARAVKVLKECIRLKPDDATIPLLAAKLCVGSLHWLEEAEKFAKTVVDVGEKTSEFKAKGYLALGLTYSLQATDASLRGMQEVLQRKALLALQRAHSLSPTDHQAAFYLALQLAISRQIPEALGYVRQALQLQGDDANSLHLLALLLSAQKHHHDALNIIDMALSEYPENFILLFSKVKLESLCRGPDEALLTCKHMLQIWKSCYNLTNPSDSGRGSSLLDRTIADRRQLNTITLPDFSDPETGSVHATSVAASRVEQALSEVASSLQSSAPKQGPLHPWMTLAQIWLHAAEVYIGIGKPAEATACTQEAANLFPMSHNVLYMRGQVAELRGNFDEARRWYEEALSISPTHVKSMQRLALVLHQLGRYSLAEKILRDAVQVNSTAHEVWNGLGEVLQAQGNDAAATECFLTALELEASSPAVPFTVIPRVL
protein production: failed

MVANLVTVVIVNYNSGEMLGKCVEHLLKSTVPIQIIISDNASSDNSLALLEQSELNKQTITIHRNNSNYGFSYANNAVFTKISTPFILYLNPDCFVENDTIENLLHTMHQHNDAGMVGCLVNNMDGSVQIGCCGLTPTPARVLNQLLKLSKIFPNNSKFGGYLFSKEKLPTKPTEVELISGSCMFVRKKAIDEVGLLDDNYFLYCEDYDWFYRFTQSNWKIIFNPNTKVTHIKSFSTKQIPFKVLLYKAKGMWRFYNKFFKENSSPATTLIIRVGIIARFFSLSGLLLFKKLLRTTS
protein production: failed

ARHPDLVSCLTLLQAGDVAAFTVWKAARDPKGVLATPILGHVAMRRMAPKRMPAWYALSVGKADMISELCRCAERSFQHGAQWSLASAYQCYMDPAVELPRPHQPLLSIWGGADFSHPAGNEHSIRRLRPDAVCVTFDDLGHTPELEDPIRVFDAIVRFCEA
protein production: failed

MEGERMNAFPSTMMDEELNLWDFLERAAALFGRKEVVSRLHTGEVHRTTYAEVYQRARRLMGGLRALGVGVGDRVATLGFNHFRHLEAYFAVPGMGAVLHTANPRLSPKEIAYILNHAEDKVLLFDPNLLPLVEAIRGELKTVQHFVVMDEKAPEGYLAYEEALGEEADPVRVPERAACGMAYTTGTTGLPKGVVYSHRALVLHSLAASLVDGTALSEKDVVLPVVPMFHVNAWCLPYAATLVGAKQVLPGPRLDPASLVELFDGEGVTFTAGVPTVWLALADYLESTGHRLKTLRRLVVGGSAAPRSLIARFERMGVEVRQGYGLTETSPVVVQNFVKSHLESLSEEEKLTLKAKTGLPIPLVRLRVADEEGRPVPKDGKALGEVQLKGPWITGGYYGNEEATRSALTPDGFFRTGDIAVWDEEGYVEIKDRLKDLIKSGGEWISSVDLENALMGHPKVKEAAVVAIPHPKWQERPLAVVVPRGEKPTPEELNEHLLKAGFAKWQLPDAYVFAEEIPRTSAGKFLKRALREQYKNYYGGA
protein production: not failed

MFERFDSDRSRYASLGVVSSLPSGLIDSIWLIIDLNLKGVIPLNDLLHFDLLNNNGKVTVHFSQENSSVEMAIDLPFSYSTAYPSRIFAFDDGHRETILLPAEMLES
protein production: not failed

MDLPVDEWKSYLLQKWASLPTSVQVTISTAETLRDIFLHSSSLLQPEDELFLKRLSKGYLVGKDSDAPLFYREEGNKKFQEKDYTGAAVLYSKGVSHSRPNTEDMSLCHANRSAALFHLGQYETCLKDINIAQTHGYPERLQPKIMLRKAECLVALGRLQEASQTISDLERNFTATPALADVLPQTLQRNLHRLKMKMQEKDSLTESFPAALAKTLEDAALREENEQLSNASSSIGLCVDPLKGRCLVATKDILPGELLVQEDAFVSVLNPGELPPPHHGLDSKWDTRVTNGDLYCHRCLKHTLATVPCDGCSYAKYCSQECLQQAWELYHRTECPLGGLLLTLGVFCHIALRLTLLVGFEDVRKIITKLCDKISNKDICLPESNNQVKTLNYGLGESEKNGNIVETPIPGCDINGKYENNYNAVFNLLPHTENHSPEHKFLCALCVSALCRQLEAASLQAIPTERIVNSSQLKAAVTPELCPDVTIWGVAMLRHMLQLQCNAQAMTTIQHTGPKGSIVTDSRQVRLATGIFPVISLLNHSCSPNTSVSFISTVATIRASQRIRKGQEILHCYGPHKSRMGVAERQQKLRSQYFFDCACPACQTEAHRMAAGPRWEAFCCNSCGAPMQGDDVLRCGSRSCAESAVSRDHLVSRLQDLQQQVRVAQKLLRDGELERAVQRLSGCQRDAESFLWAEHAVVGEIADGLARACAALGDWQKSATHLQRSLCVVEVRHGPSSVEMGHELFKLAQIFFNGFAVPEALSTIQKAEEVLSLHCGPWDDEIQELQKMKSCLLDLPPTPVGPAL
protein production: failed

MPSSGQLYGDEERELTPTPAIPEEGVYEVKYSNRRTNVVRLLPNGFQERKLRRLANLSAKLFNEVNFERRQQFFHEGKVNIEETYKKYYEKYKVILGVNAQAVLNKNNEAWSSFFSLLKLKKEGKLPPHMNHVSPPGYWKDREAGKRKQILVIRQDRYKVDAENHKLILKDFDMEIDFIGRLKWYGKQGRLEIIFDETRNAWYAHIPIEVGVEETKAGKKSKHVVKGERKSIQISKPKGNKVASIDLGINVIASVVVNDGTWLLYKGVRTKEDYFYFQKRIAEVQSLADRTRNIGEYDAYLELLREKRRLFKKLTRRLTHLYRNLASHLIETLYELGVSTIYLGYPFNIVQEKGNKFTVNMWSYRKLMESIELKAQEYGMKVFEVVEYNTSKYCAYHDVEVKRNPRGVINCPLGHKLHSDLNGALNILKKALGVIVNAVKKPLSFIVDHNRVAPIKGCNPLEHHHHHH
protein production: failed

MKMKLPLPKPSTKIAKKPQQLALLNQRLNQLSQQFKQALAQEDYQRAYECVHEVIHLVPDHRVAYMDLAYTALRLKRFDAAYQHYQKALELSEKNIDPNIYDGLTEVAYFLNQQEQVRHYGHLSLKTKQKQVASETMTALPHSAPPPISIESPEQNIIAFSLFGDQPRYCETAILNVIEARKIYPEWRCRFYVDESVPSSVLSRLQQHGAQLVLVSPEQQQISGLFWRFFVMDDPEVKRFLIRDADSLISMREREAVDEWLQSDRWFHVMRDYYSHTELILAGMWGGCTGIFHQIETSIRQYIASGRYLNERVIDQHFLRYCIWPTLQQSVITHDRYLFADNASRFPQDRDRQPDWRIQYQHVGMNESAATVSVTVNHPDAVRVKWVLLNQMKQIVCQYSAQVLSNRSIEIHLPENYVEKIRLKAWNLQIYPYEN
protein production: failed
